The data set concerns the molecule itself. Put plainly: BASIL (Bead Assay of Interacting Ligands); biotinylated oligonucleotide with a single NANOG site on streptavidin beads, incubated with rNANOG at 1mg/ml for 1 hour, washed, then with fluorescein amidite labelled oligonucleotide of the same sequence; fluorescence on the bead only if NANOG is a multimer.

From publication doi:10.1101/2025.11.27.690710, “Direct recruitment of RNA Polymerase II by NANOG to activated target genes” (bioRxiv, 2025) come the findings set out here.

B1: Recombinant full length NANOG, purified and refolded (natural protein, mouse, UniProt Q80Z64 1-305, looked up)
chain: MSVGLPGPHSLPSSEEASNSGNASSMPAVFHPENYSCLQGSATEMLCTEAASPRPSSEDLPLQGSPDSSTSPKQKLSSPEADKGPEEEENKVLARKQKMRTVFSQAQLCALKDRFQKQKYLSLQQMQELSSILNLSYKQVKTWFQNQRMKCKRWQKNQWLKTSNGLIQKGSAPVEYPSIHCSYPQGYLVNASGSLSMWGSQTWTNPTWSSQTWTNPTWNNQTWTNPTWSSQAWTAQSWNGQPWNAAPLHNFGEDFLQPYVQLQQNFSASDLEVNLEATRESHAHFSTPQALELFLNYSVTPPGEI
notes: NANOG, mouse, full length; Forms multimers by the BASIL assay; the size of the oligomer is not measured here; also called purified NANOG; rNANOG
For the protein B1, the binding result was “binds”.
